This passage reports Kd results from PMC6774351.

The experiment has as its target Alexa488-labelled NLRP3 (human). Put plainly: MST.

Regarding “NEK7 (wild type; NEK7 monomer) (from UniProt Q8TDX7 1-302) (enzyme)”, the Kd (commonly the concentration at which binding is half-saturated) amounted to 78.9 nM.
